Biological target: the molecule itself
Assay: cryo-EM structure; 3 mg/ml SLC9C1 in GDN detergent (50 mM Tris-HCl pH 7.5, 150 mM NaCl, 0.02% GDN); C2 symmetry, symmetry expansion and masked refinement for the VSDs

B1: Strongylocentrotus purpuratus (sea urchin) SLC9C1, full length, GFP-TwinStrep tag removed by TEV (natural protein, UniProt A3RL54 30-1325, looked up)
chain: SSGGSGHTPTTQATHADDHDLTTHNGTEEHDDGHDDGHDDLHAHAPKVIVFISGSCLFGAISRSLFKKLPIPYTVVLLILGAILGVVASNVPLVEEHTRDVAHMDPHVLLQIFLPVLIFESAFAMDVHTFMRSFSQVCILALFGLVVASVLTAVLAMNLFNYNWNFSEAMMFGAIMSATDPVAVVALLKDLGASKQLGTIIEGESLLNDGCAIVIFNVFMKMVFFPQLTSTVGQNVLYFLQVAVAGPLWGYAVAKVTVFFLSHIFNDALVEITITLAATYLTYYIGDIWLEVSGVLAVVVLGLIVNAEKTSISPEVEVFLHRFWEMLAYLANTLIFMMVGVVVTQKALVAVDKMDWFYLIILYLAITIIRGMVISLFSPILSRIGYGLTWRNAVIMTWGGLRGAVGLALALVVENLAGNDVIGSKFLFHTAGIVVLTLVINATTIQTLLRILGMSDISIPKRLAMAGAVRRIHEGQNRTLNMLKSDRFLADADWDIATAACEISDPYSALSDDENAPADELTLGERKSVCPGCKAMVPNEPSPREFADMMEEARLRMLKAEKISYWKQFEHGMLAREALRLLVQHAEVAADEKDQFILVDDLKKSWQIKGIYPWLKRKLEDLISEKKIAAIPMPKYKLGKLMYKICHHMAFEVTINIAIVLNIVPIIMEFVVQDKMASVSTMAAPGSTVSSEPSSLQKIEDALRISNYVFFVIYAIEAIVKILGLGRHYIVSHWNKFDAFILVVALVDIIIAETLLKGSITINLSSIKVVKLFRLLRGLRMLRLTKALIPKLILVVNGKINNQLSLGYDVGKGYIIGEEEVGKIIDRMVDNKKILRELKHISETGRLQVVKELGLLQREHPGIAVSVKTRQAIRTILNHSRETIHELQGAGLLDEMEAHKLELTVEIKMKRLMNAPSSIPPPPPENLLKNVSWLAGDMKLIDFIKARASLLHFDYGEVIVREGDESDGLFLIVSGLVKLYGKSAFLDHDNPPVTAGSEENEVFEDYLTVGNVIGEMGVLTKKPRNATVTCETTVQVYFITAEDMNIAIDTFTLYPSLEYRLWRVVAIRIATPLIMEQMAFQGWTQEKVKLHLERGYLVDLAESHFQFNIDATLEDVILINGTAYNAHTREEIRSPCLISRTVHKLTFQYTATEEPRLFVVRNAEYNGPILDGRLDVDSKRSLISITEISSNMCLKHAAELRQKNSKVMLSRKSSGAAAKEEEDCIPNTSDVEQAAGVSPSVPTKTTPKPKSFLPSLGLSMSKERVNGEAVEESPVKTKQGEETPETEEGAAPRVNV
notes: synthesised gene in pcDNA3.1(+); A TEV recognition site follows the protein; what is left of it after cleavage stays at the C terminus; also called sperm-specific Na+/H+ exchanger SLC9C1; SLC9C1(WT); source: for one sample further reconstituted into MSP1E2 nanodiscs with yeast polar lipids; not shown: eGFP, C-terminal, cleaved; TwinStrep, C-terminal, cleaved; His8, C-terminal, cleaved
stoichiometry N: 2
